Data on 5 substances can be found in paper PMC2921712.

The target in assay [1] is microtubules. The assay is described as follows: co-sedimentation.
Assay [2] addresses Oregon Green 488-labeled GMPCPP microtubules. The assay is described as follows: single-molecule TIRF microscopy.
In assay [3] the target is Xenopus CENP-E^1-473 tagged with TagRFP-T (CENP-E^1-473-RFP) (Xenopus laevis). The assay can be described thus: single-molecule TIRF microscopy with photobleaching steps.

Sequence of Oregon Green 488-labeled GMPCPP microtubules (P02550 whole entry, chain 1 of 2): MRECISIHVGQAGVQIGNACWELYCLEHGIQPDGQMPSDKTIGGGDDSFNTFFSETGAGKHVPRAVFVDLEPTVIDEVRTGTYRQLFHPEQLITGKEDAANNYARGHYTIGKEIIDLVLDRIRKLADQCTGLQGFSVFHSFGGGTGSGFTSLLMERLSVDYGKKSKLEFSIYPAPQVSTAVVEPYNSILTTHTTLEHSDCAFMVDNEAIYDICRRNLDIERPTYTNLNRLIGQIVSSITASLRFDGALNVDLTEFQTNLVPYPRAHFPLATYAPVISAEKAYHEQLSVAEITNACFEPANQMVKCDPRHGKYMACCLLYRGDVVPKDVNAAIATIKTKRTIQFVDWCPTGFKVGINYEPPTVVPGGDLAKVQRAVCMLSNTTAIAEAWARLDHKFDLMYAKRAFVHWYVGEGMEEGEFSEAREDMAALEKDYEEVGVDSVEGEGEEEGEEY
Sequence of Oregon Green 488-labeled GMPCPP microtubules (P02554 whole entry, chain 2 of 2, further chain): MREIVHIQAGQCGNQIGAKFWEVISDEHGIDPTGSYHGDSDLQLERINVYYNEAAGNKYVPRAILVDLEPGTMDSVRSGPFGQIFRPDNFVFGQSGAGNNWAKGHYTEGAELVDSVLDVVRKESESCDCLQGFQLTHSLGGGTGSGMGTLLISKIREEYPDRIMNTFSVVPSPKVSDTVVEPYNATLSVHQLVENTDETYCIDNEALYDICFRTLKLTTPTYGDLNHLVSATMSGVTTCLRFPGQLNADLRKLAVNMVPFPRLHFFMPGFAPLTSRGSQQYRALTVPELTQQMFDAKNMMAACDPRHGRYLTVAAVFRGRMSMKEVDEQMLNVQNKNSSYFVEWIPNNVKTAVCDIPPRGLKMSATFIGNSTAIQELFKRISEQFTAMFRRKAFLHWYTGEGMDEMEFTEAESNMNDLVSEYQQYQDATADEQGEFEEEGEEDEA
Sequence of microtubules (P02550 whole entry, chain 1 of 2): as the sequence (P02550 whole entry, chain 1 of 2) above
Sequence of microtubules (P02554 whole entry, chain 2 of 2, further chain): as the sequence (P02554 whole entry, chain 2 of 2, further chain) above

Take “Xenopus CENP-E^1-473 phosphorylated by Aurora A (domain or fragment)”: in assay [1], the Kd came out at 3000 nM. In other words, the single-digit micromolar range.
Still for that read-out and setting: the value for “T424A Xenopus CENP-E^1-473 incubated with Aurora A (domain or fragment)” was 3400 nM.
Regarding “Xenopus CENP-E^1-473-RFP phosphorylated by Aurora A (domain or fragment)”, the mean duration of binding (t) in assay [2] came out at 12 s.
In assay [2], “Xenopus CENP-E^1-473 tagged with TagRFP-T (CENP-E^1-473-RFP) (domain or fragment)” had a mean duration of binding (t) of 17 s and a time bound at the microtubule end of 5.8 s. This substance registered a stoichiometry N in assay [3] of 2.
“Xenopus CENP-E motor fragment CENP-E^1-473 (domain or fragment)”: the Kd in assay [1] was found to be 2000 nM.
